Results from article PMC9243006.

Target: purified complement factor H protein (UniProt P06909)
Experiment: SPR; CFH immobilised by amine coupling on a sensor chip; rTraT at 80, 40, 20, 10, 5 or 2.5 µg/ml

Chain of UniProt P06909 (P06909 19-1234): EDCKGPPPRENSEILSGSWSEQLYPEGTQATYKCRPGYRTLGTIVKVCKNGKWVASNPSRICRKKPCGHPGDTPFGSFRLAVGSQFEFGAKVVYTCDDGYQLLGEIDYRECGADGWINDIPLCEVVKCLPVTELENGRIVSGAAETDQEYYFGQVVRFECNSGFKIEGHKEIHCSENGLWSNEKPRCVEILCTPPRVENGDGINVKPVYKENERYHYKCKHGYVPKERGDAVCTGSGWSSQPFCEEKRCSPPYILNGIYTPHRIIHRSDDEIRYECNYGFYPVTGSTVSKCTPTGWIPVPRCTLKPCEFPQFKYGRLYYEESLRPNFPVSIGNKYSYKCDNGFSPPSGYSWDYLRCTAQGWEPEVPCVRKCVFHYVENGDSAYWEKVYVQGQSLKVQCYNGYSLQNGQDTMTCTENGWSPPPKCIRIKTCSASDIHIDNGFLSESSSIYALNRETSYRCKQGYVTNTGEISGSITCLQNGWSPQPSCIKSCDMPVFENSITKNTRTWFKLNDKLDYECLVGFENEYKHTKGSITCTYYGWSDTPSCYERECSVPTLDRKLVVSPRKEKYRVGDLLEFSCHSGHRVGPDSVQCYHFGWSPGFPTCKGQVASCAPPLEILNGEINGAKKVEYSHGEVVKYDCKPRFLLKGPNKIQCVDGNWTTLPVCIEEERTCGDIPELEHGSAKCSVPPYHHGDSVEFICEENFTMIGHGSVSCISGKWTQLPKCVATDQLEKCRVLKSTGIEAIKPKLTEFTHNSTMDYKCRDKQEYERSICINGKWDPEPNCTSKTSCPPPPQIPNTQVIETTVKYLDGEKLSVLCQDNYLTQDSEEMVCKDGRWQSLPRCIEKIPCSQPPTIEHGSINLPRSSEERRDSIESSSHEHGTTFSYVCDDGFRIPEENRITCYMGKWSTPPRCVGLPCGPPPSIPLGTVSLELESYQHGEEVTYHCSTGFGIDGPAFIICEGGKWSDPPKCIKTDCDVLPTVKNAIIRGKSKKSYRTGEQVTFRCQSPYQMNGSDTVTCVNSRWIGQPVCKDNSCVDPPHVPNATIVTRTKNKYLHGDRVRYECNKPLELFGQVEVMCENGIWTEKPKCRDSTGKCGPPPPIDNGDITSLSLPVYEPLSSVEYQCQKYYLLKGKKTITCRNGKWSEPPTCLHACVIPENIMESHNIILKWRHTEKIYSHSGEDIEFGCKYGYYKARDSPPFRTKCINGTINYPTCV

For “recombinant TraT (rTraT) (domain or fragment)”, the Kd was 3.15 µM.
